Patent US10471162B2, “Collagen targeted imaging probes” (priority 2014, dated 2019)

Tests used:
[1] = tested on: pulmonary fibrosis, C57/BL6 mice (bleomycin or sham); test: in vivo; format: in vivo, mouse; conditions: male, C57/BL6, mouse, in vivo, iv, 2.5 h
Method: (§1) Pulmonary fibrosis was induced in 7-8-week-old male C57/BL6 mice by transtracheal administration of bleomycin (BM; 2.5 U/kg) in 50 μL of PBS under direct vision using a small cervical incision. Sham animals received only PBS. Animals were placed in a small-animal PET/SPECT/CT scanner (Triumph; TriFoil Imaging), equipped with inhalation anesthesia and heating pad. Each animal was anesthetized with isoflurane (4% for induction, 2-2.5% for maintenance in medical air) and body temperature was kept at 37-38° C. using a heating pad. The femoral vein was cannulated for intravenous delivery of the PET agent. Each mouse was injected with approximately 0.1 mL and 20-50 μCi of ^64Cu-CBP(n), 0.1 mL and 20-50 μCi of ^68Ga-CBP(n) and 0.1 mL and 10-20 μCi of Al^18F-CBP(n) in a 18 mM solution of sucrose in water, followed by saline flush. […] The lungs, blood, urine, heart, liver, left rectus femoris muscle, spleen, small intestine, kidneys, left femur bone were collected from all animals. The tissues were weighed, and radioactivity in each tissue was measured on a gamma counter (CobraII Auto gamma; Packard). The radioactivity in the lung was reported as percent injected dose per gram corrected with the average sham weight, which was calculated by dividing the counts of ^64Cu per average sham tissue weight in gram by the total of counts of the injected dose. The radioactivity in every other tissue was reported as percent injected dose per gram (% ID/g), which was calculated by dividing the counts of ^64Cu per gram of tissue by the total of counts of the injected dose. A p-value of less than 0.05 was considered significant. Uncertainties are expressed as the standard error of the mean.

in vivo [2] = format: in vivo, mouse; conditions: male, C57/BL6, mouse, in vivo, iv, total radioactivity, Biodistribution % ID/g
Method: as §1

in vivo [3] = test: in vivo; parameters: species or system mouse; conditions: male, C57Bl/6, mouse, iv, total radioactivity, Biodistribution % ID/lung
Method: Adult male C57Bl/6 mice were administered a single intratracheal dose of low dose bleomycin at 0.1 U/kg (low dose), in a total volume of 50 μl sterile saline. FTY720 was administered intraperitoneally to the mice at 1 mg/kg three times a week. To effect treatment in the low dose bleomycin, vascular leak model, the therapeutic murine antibody 3G9 (alpha-v-beta6 blocking antibody) and 1E6 (matched isotype control antibody) were used. Antibodies were injected into mice intraperitoneally three times week at a concentration of 1 mg/kg. All administrations of FTY720 and antibodies were initiated on day 0, ˜30 minutes before bleomycin challenge and continued throughout the duration of the experiments. […] The tissues were weighed, and radioactivity in each tissue was measured on a gamma counter (CobraII Auto gamma; Packard). The radioactivity in the lung was reported as percent injected dose per gram corrected with the average sham weight, which was calculated by dividing the counts of ^64Cu per average sham tissue weight in gram by the total of counts of the injected dose. The radioactivity in every other tissue was reported as percent injected dose per gram (% ID/g), which was calculated by dividing the counts of ^64Cu per gram of tissue by the total of counts of the injected dose. […] Uncertainties are expressed as the standard error of the mean.

[4] = tested on: pulmonary fibrosis, C57Bl/6 mice (low dose bleomycin, FTY720); test: in vivo; parameters: species or system mouse
Method: as §1, with “Adult male C57Bl/6 mice were administered a single intratracheal dose of low dose bleomycin at 0.1 U/kg (low dose), in a total volume of 50 μl sterile saline. FTY720” for “Pulmonary fibrosis”, “administered intraperitoneally to the” for “induced in 7-8-week-old male C57/BL6”, “at 1 mg/kg three times” for “by transtracheal administration of bleomycin (BM; 2.5 U/kg) in 50 μL of PBS under direct vision using”, “week.” for “small cervical incision. Sham animals received only PBS.”

in vivo [5] = test: in vivo; parameters: species or system mouse; conditions: male, C57Bl/6, mouse, iv, total radioactivity, Biodistribution % ID/g
Method: as §1, with “Adult male C57Bl/6 mice were administered a single intratracheal dose of low dose bleomycin at 0.1 U/kg (low dose), in a total volume of 50 μl sterile saline. FTY720” for “Pulmonary fibrosis”, “administered intraperitoneally to the” for “induced in 7-8-week-old male C57/BL6”, “at 1 mg/kg three times” for “by transtracheal administration of bleomycin (BM; 2.5 U/kg) in 50 μL of PBS under direct vision using”, “week.” for “small cervical incision. Sham animals received only PBS.”

[6] = male, C57Bl/6, mouse, iv, 2.5 h

## CC(C)C[C@H](NC(=O)[C@@H]1CSSC[C@H](NC(=O)[C@H](Cc2c[nH]cn2)NC(=O)[C@H](Cc2c[nH]c3ccccc23)NC(=O)[C@H](CCCCNC(=O)CNC(=O)CCC(C(=O)O)N2CCN(CC(=O)O)CCN(CC(=O)O)CC2)NC(=O)CNC(=O)CCC(C(=O)O)N2CCN(CC(=O)O)CCN(CC(=O)O)CC2)C(=O)N[C@@H]([C@@H](C)O)C(=O)N[C@@H]([C@@H](C)O)C(=O)N[C@@H](CCCCNC(=O)CCC(C(=O)O)N2CCN(CC(=O)O)CCN(CC(=O)O)CC2)C(=O)N[C@@H](Cc2ccccc2)C(=O)N2CCC[C@H]2C(=O)N[C@@H](Cc2c[nH]cn2)C(=O)N[C@@H](Cc2c[nH]cn2)C(=O)N[C@@H](Cc2ccc(O)cc2)C(=O)N1)C(=O)N[C@@H](Cc1ccc(O)cc1)C(=O)N[C@@H](Cc1ccc(-c2ccccc2)cc1)C(N)=O (single isomer, unassigned) [CBP8]
[1]
  Biodistribution % ID/g, blood: 0.569 ± 0.102 % ID/g
  Biodistribution % ID/g, bone: 1.117 ± 0.347 % ID/g
  Biodistribution % ID/g, heart: 0.340 ± 0.032 % ID/g
  Biodistribution % ID/g, kidney: 41.063 ± 5.830 % ID/g
  Biodistribution % ID/g, liver: 1.189 ± 0.113 % ID/g
  Biodistribution % ID/g, muscle: 0.927 ± 0.422 % ID/g
  Biodistribution % ID/g, sm. intestine: 0.830 ± 0.197 % ID/g
  Biodistribution % ID/g, spleen: 0.659 ± 0.141 % ID/g
In vivo [2]; blood
  tissue uptake at 2.5 h: 0.512 ± 0.181 %ID/g
In vivo [2]; bone
  tissue uptake at 2.5 h: 1.11 ± 0.594 %ID/g
In vivo [2]; heart
  tissue uptake at 2.5 h: 0.242 ± 0.059 %ID/g
In vivo [2]; kidney
  tissue uptake at 2.5 h: 30 ± 4.59 %ID/g
In vivo [2]; liver
  tissue uptake at 2.5 h: 0.95 ± 0.127 %ID/g
In vivo [2]; muscle
  tissue uptake at 2.5 h: 0.567 ± 0.247 %ID/g
In vivo [2]; sm. intestine
  tissue uptake at 2.5 h: 0.42 ± 0.086 %ID/g
In vivo [2]; spleen
  tissue uptake at 2.5 h: 0.462 ± 0.047 %ID/g
In vivo [3]
  tissue uptake dose at 2.5 h: 0.043 ± 0.001 %ID
[4]; [6]
  Biodistribution % ID/g, blood: 0.523 ± 0.062 % ID/g
  Biodistribution % ID/g, heart: 0.340 ± 0.038 % ID/g
  Biodistribution % ID/g, kidney: 50.36 ± 2.756 % ID/g
  Biodistribution % ID/g, liver: 1.998 ± 0.117 % ID/g
  Biodistribution % ID/g, small intest.: 0.690 ± 0.064 % ID/g
  Biodistribution % ID/g, spleen: 0.925 ± 0.126 % ID/g
[4]; mouse
  organ uptake between groups, except lungs, in words: not significantly different
In vivo [5]; blood
  tissue uptake at 2.5 h: 0.347 ± 0.017 %ID/g
In vivo [5]; heart
  tissue uptake at 2.5 h: 0.293 ± 0.024 %ID/g
In vivo [5]; kidney
  tissue uptake at 2.5 h: 42.7 ± 1.42 %ID/g
In vivo [5]; liver
  tissue uptake at 2.5 h: 1.44 ± 0.108 %ID/g
In vivo [5]; small intest.
  tissue uptake at 2.5 h: 0.477 ± 0.052 %ID/g
In vivo [5]; spleen
  tissue uptake at 2.5 h: 0.47 ± 0.045 %ID/g
